Measurements taken from patent publication US7981863.

Target: VEGF receptor Flk-1 on rat neural stem cells (rat) (UniProt O08775)
Assay: cell-based or functional assay

Chain of VEGF receptor Flk-1 on rat neural stem cells (rat) (O08775 20-1343): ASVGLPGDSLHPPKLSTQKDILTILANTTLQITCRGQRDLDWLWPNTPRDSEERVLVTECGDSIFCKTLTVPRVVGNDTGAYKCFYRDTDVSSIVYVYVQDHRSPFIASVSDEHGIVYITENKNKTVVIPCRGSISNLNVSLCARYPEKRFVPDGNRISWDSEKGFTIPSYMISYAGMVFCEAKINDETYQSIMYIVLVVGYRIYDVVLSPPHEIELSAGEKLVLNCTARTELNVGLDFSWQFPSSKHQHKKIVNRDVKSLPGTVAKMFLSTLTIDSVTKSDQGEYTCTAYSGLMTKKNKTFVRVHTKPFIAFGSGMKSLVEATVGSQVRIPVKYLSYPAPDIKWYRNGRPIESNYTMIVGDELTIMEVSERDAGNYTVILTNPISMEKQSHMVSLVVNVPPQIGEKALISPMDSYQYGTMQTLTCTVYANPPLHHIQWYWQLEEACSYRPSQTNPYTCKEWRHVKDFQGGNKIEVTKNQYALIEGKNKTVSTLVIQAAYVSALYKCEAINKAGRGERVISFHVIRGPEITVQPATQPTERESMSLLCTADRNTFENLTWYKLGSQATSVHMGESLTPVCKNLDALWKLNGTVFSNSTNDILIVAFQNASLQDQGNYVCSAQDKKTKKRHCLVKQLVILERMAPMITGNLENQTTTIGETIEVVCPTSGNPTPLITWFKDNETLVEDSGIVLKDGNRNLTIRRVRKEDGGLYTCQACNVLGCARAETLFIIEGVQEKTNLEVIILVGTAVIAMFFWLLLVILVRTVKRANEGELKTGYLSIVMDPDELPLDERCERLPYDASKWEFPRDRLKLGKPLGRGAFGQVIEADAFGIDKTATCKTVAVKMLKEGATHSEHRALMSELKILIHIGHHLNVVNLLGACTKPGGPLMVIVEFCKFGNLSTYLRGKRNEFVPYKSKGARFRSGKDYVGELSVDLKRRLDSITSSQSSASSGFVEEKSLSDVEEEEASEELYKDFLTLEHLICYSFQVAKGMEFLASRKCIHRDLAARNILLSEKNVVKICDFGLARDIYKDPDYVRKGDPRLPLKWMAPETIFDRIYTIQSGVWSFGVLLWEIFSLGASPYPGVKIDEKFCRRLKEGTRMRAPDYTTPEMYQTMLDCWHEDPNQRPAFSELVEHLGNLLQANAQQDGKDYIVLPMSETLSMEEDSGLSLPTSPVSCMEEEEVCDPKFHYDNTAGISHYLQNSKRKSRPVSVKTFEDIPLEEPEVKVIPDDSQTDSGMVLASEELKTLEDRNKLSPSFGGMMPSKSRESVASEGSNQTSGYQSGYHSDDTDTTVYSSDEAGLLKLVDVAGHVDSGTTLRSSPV

ED50 of expansion of neural stem cell cultures (cell number after 7 days): 10 ng/mL
concentration of maximal stimulation of neural stem cell expansion: 50 ng/mL
Substance: mouse recombinant VEGF164 (from UniProt Q00731 27-190) (ligand)
